# Measurements as given in paper doi:10.1101/2021.08.20.457142.
# B1: MKK6 D-site peptide / p38-alpha (MAPK14) L195A, full length (parent complex)
# chain 1: SQSKGKKRNPGLKIPKEAFEQP
# chain 2: MSQERPTFYRQELNKTVWEVPERYQNLSPVGSGAYGSVCAAFDTKTGHRVAVKKLSRPFQSIIHAKRTYRELRLLKHMKHENVIGLLDVFTPARSLEEFNDVYLVTHLMGADLNNIVKCQKLTDDHVQFLIYQILRGLKYIHSADIIHRDLKPSNLAVNEDCELKILDFGLARHTDDEMTGYVATRWYRAPEIMANWMHYNQTVDIWSVGCIMAELLTGRTLFPGTDHIDQLKLILRLVGTPGAELLKKISSESARNYIQSLAQMPKMNFANVFIGANPLAVDLLEKMLVLDSDKRITAAQALAHAYFAQYHDPDDEPVAEPYDQSFESRDFLIDEWKSLTYDEVISFVPPPLDQEEMES
# Variants of: B1
row,Variant,screen value
1,chain 1 G11K,2.23 Z-score of the enrichment rate within one screen of 711 sequences
2,chain 1 G11N,1.3 Z-score of the enrichment rate within one screen of 711 sequences
3,chain 1 G11H,1.37 Z-score of the enrichment rate within one screen of 711 sequences
4,chain 1 G11C,1.37 Z-score of the enrichment rate within one screen of 711 sequences
5,chain 1 G11Q,1.09 Z-score of the enrichment rate within one screen of 711 sequences
6,chain 1 G11V,0.807 Z-score of the enrichment rate within one screen of 711 sequences
7,chain 1 G11L,1 Z-score of the enrichment rate within one screen of 711 sequences
8,chain 1 G11P,-0.211 Z-score of the enrichment rate within one screen of 711 sequences
9,chain 1 G11D,0.0949 Z-score of the enrichment rate within one screen of 711 sequences
10,"chain 1 K4A, chain 1 K16A",0.0782 Z-score of the enrichment rate within one screen of 711 sequences
11,"chain 1 K4A, chain 1 I14A",-1.18 Z-score of the enrichment rate within one screen of 711 sequences
12,"chain 1 G11A, chain 1 P15A",1.79 Z-score of the enrichment rate within one screen of 711 sequences
13,"chain 1 G5A, chain 1 N9A",1.1 Z-score of the enrichment rate within one screen of 711 sequences
14,chain 1 K4L,1.3 Z-score of the enrichment rate within one screen of 711 sequences
15,chain 1 K4T,0.747 Z-score of the enrichment rate within one screen of 711 sequences
16,chain 1 K4M,0.845 Z-score of the enrichment rate within one screen of 711 sequences
17,chain 1 K4S,0.887 Z-score of the enrichment rate within one screen of 711 sequences
18,chain 1 K4N,0.364 Z-score of the enrichment rate within one screen of 711 sequences
19,chain 1 K4A,0.525 Z-score of the enrichment rate within one screen of 711 sequences
20,chain 1 K4E,0.242 Z-score of the enrichment rate within one screen of 711 sequences
21,chain 1 K4W,1.28 Z-score of the enrichment rate within one screen of 711 sequences
22,chain 1 K4R,2.04 Z-score of the enrichment rate within one screen of 711 sequences
23,"chain 1 K6A, chain 1 P10A",-0.354 Z-score of the enrichment rate within one screen of 711 sequences
24,"chain 1 G5A, chain 1 K13A",-0.263 Z-score of the enrichment rate within one screen of 711 sequences

row,Variant,screen value
1,chain 1 K6H,0.638 Z-score of the enrichment rate within one screen of 711 sequences
2,chain 1 K6S,0.535 Z-score of the enrichment rate within one screen of 711 sequences
3,chain 1 K6I,0.848 Z-score of the enrichment rate within one screen of 711 sequences
4,chain 1 K6L,1.2 Z-score of the enrichment rate within one screen of 711 sequences
5,chain 1 K6F,1.13 Z-score of the enrichment rate within one screen of 711 sequences
6,chain 1 K6T,0.469 Z-score of the enrichment rate within one screen of 711 sequences
7,chain 1 K6N,0.746 Z-score of the enrichment rate within one screen of 711 sequences
8,"chain 1 K7A, chain 1 K16A",0.0296 Z-score of the enrichment rate within one screen of 711 sequences
9,"chain 1 K6A, chain 1 G11A",0.561 Z-score of the enrichment rate within one screen of 711 sequences
10,"chain 1 K6A, chain 1 R8A",-0.524 Z-score of the enrichment rate within one screen of 711 sequences
11,"chain 1 K6A, chain 1 K7A",-0.229 Z-score of the enrichment rate within one screen of 711 sequences
12,"chain 1 G5A, chain 1 G11A",1.18 Z-score of the enrichment rate within one screen of 711 sequences
13,"chain 1 G5A, chain 1 I14A",-1.03 Z-score of the enrichment rate within one screen of 711 sequences
14,"chain 1 G11A, chain 1 I14A",-0.938 Z-score of the enrichment rate within one screen of 711 sequences
15,chain 1 K7L,1.83 Z-score of the enrichment rate within one screen of 711 sequences
16,chain 1 K7E,-0.535 Z-score of the enrichment rate within one screen of 711 sequences
17,chain 1 K7F,1.5 Z-score of the enrichment rate within one screen of 711 sequences
18,chain 1 K7W,1.32 Z-score of the enrichment rate within one screen of 711 sequences
19,chain 1 K7T,0.476 Z-score of the enrichment rate within one screen of 711 sequences
20,chain 1 K7Q,0.531 Z-score of the enrichment rate within one screen of 711 sequences
21,chain 1 K7H,0.776 Z-score of the enrichment rate within one screen of 711 sequences
22,chain 1 K7M,1.7 Z-score of the enrichment rate within one screen of 711 sequences
23,chain 1 K7A,0.591 Z-score of the enrichment rate within one screen of 711 sequences
24,chain 1 K7C,1.13 Z-score of the enrichment rate within one screen of 711 sequences

row,Variant,screen value
1,"chain 1 K7A, chain 1 L12A",-1.2 Z-score of the enrichment rate within one screen of 711 sequences
2,"chain 1 K7A, chain 1 I14A",-1.1 Z-score of the enrichment rate within one screen of 711 sequences
3,"chain 1 K7A, chain 1 K13A",-0.71 Z-score of the enrichment rate within one screen of 711 sequences
4,"chain 1 K4A, chain 1 K7A",-0.395 Z-score of the enrichment rate within one screen of 711 sequences
5,"chain 1 K7A, chain 1 G11A",0.113 Z-score of the enrichment rate within one screen of 711 sequences
6,"chain 1 K4A, chain 1 R8A",-0.792 Z-score of the enrichment rate within one screen of 711 sequences
7,chain 1 I14L,3.12 Z-score of the enrichment rate within one screen of 711 sequences
8,chain 1 I14D,-0.97 Z-score of the enrichment rate within one screen of 711 sequences
9,chain 1 I14A,-0.785 Z-score of the enrichment rate within one screen of 711 sequences
10,chain 1 I14K,-0.966 Z-score of the enrichment rate within one screen of 711 sequences
11,chain 1 I14Q,-1.07 Z-score of the enrichment rate within one screen of 711 sequences
12,chain 1 I14E,-0.921 Z-score of the enrichment rate within one screen of 711 sequences
13,chain 1 I14V,-0.578 Z-score of the enrichment rate within one screen of 711 sequences
14,chain 1 I14H,-0.748 Z-score of the enrichment rate within one screen of 711 sequences
15,chain 1 I14F,-0.0574 Z-score of the enrichment rate within one screen of 711 sequences
16,chain 1 G5H,1.94 Z-score of the enrichment rate within one screen of 711 sequences
17,chain 1 G5L,4 Z-score of the enrichment rate within one screen of 711 sequences
18,chain 1 G5A,1.57 Z-score of the enrichment rate within one screen of 711 sequences
19,chain 1 G5Q,1.53 Z-score of the enrichment rate within one screen of 711 sequences
20,chain 1 G5C,1.42 Z-score of the enrichment rate within one screen of 711 sequences
21,chain 1 G5V,1.75 Z-score of the enrichment rate within one screen of 711 sequences
22,chain 1 G5D,0.151 Z-score of the enrichment rate within one screen of 711 sequences
23,"chain 1 K4A, chain 1 L12A",-1.24 Z-score of the enrichment rate within one screen of 711 sequences
24,"chain 1 K6A, chain 1 K16A",0.354 Z-score of the enrichment rate within one screen of 711 sequences

# More lines, now with the values ahead:
row,screen value,Variant
1,2 Z-score of the enrichment rate within one screen of 711 sequences,chain 1 S3I
2,1.42 Z-score of the enrichment rate within one screen of 711 sequences,chain 1 S3V
3,1.62 Z-score of the enrichment rate within one screen of 711 sequences,chain 1 S3F
4,1.66 Z-score of the enrichment rate within one screen of 711 sequences,chain 1 S3L
5,2.4 Z-score of the enrichment rate within one screen of 711 sequences,chain 1 S3W
6,0.822 Z-score of the enrichment rate within one screen of 711 sequences,chain 1 S3E
7,2.42 Z-score of the enrichment rate within one screen of 711 sequences,chain 1 S3K
8,0.521 Z-score of the enrichment rate within one screen of 711 sequences,"chain 1 S3A, chain 1 P10A"
9,0.582 Z-score of the enrichment rate within one screen of 711 sequences,"chain 1 S3A, chain 1 K4A"
10,0.227 Z-score of the enrichment rate within one screen of 711 sequences,chain 1 R8T
11,-0.224 Z-score of the enrichment rate within one screen of 711 sequences,chain 1 R8M
12,-0.149 Z-score of the enrichment rate within one screen of 711 sequences,chain 1 R8A
13,0.378 Z-score of the enrichment rate within one screen of 711 sequences,chain 1 R8I
14,-1 Z-score of the enrichment rate within one screen of 711 sequences,chain 1 R8D
15,-0.13 Z-score of the enrichment rate within one screen of 711 sequences,chain 1 R8C
16,0.072 Z-score of the enrichment rate within one screen of 711 sequences,chain 1 R8H
17,-1.29 Z-score of the enrichment rate within one screen of 711 sequences,chain 1 L12E
18,-1.12 Z-score of the enrichment rate within one screen of 711 sequences,chain 1 L12S
19,-1.05 Z-score of the enrichment rate within one screen of 711 sequences,chain 1 L12D
20,-0.212 Z-score of the enrichment rate within one screen of 711 sequences,chain 1 L12I
21,0.044 Z-score of the enrichment rate within one screen of 711 sequences,chain 1 L12M
22,-1.21 Z-score of the enrichment rate within one screen of 711 sequences,chain 1 L12R
23,-0.927 Z-score of the enrichment rate within one screen of 711 sequences,"chain 1 P10A, chain 1 K13A"
24,1.61 Z-score of the enrichment rate within one screen of 711 sequences,"chain 1 N9A, chain 1 P15A"
25,-0.276 Z-score of the enrichment rate within one screen of 711 sequences,"chain 1 P10A, chain 1 K16A"
26,-0.111 Z-score of the enrichment rate within one screen of 711 sequences,chain 1 K13H

row,screen value,Variant
1,1.63 Z-score of the enrichment rate within one screen of 711 sequences,chain 1 K13R
2,0.592 Z-score of the enrichment rate within one screen of 711 sequences,chain 1 K13W
3,-0.899 Z-score of the enrichment rate within one screen of 711 sequences,chain 1 K13E
4,-0.0746 Z-score of the enrichment rate within one screen of 711 sequences,chain 1 K13C
5,-0.836 Z-score of the enrichment rate within one screen of 711 sequences,chain 1 K13P
6,0.352 Z-score of the enrichment rate within one screen of 711 sequences,chain 1 K13T
7,-0.309 Z-score of the enrichment rate within one screen of 711 sequences,"chain 1 K13A, chain 1 P15A"
8,-0.612 Z-score of the enrichment rate within one screen of 711 sequences,chain 1 K16E
9,1.69 Z-score of the enrichment rate within one screen of 711 sequences,chain 1 K16M
10,0.661 Z-score of the enrichment rate within one screen of 711 sequences,chain 1 K16W
11,1.28 Z-score of the enrichment rate within one screen of 711 sequences,chain 1 K16L
12,0.798 Z-score of the enrichment rate within one screen of 711 sequences,chain 1 K16P
13,-0.443 Z-score of the enrichment rate within one screen of 711 sequences,chain 1 K16G
14,0.392 Z-score of the enrichment rate within one screen of 711 sequences,chain 1 K16C
15,0.988 Z-score of the enrichment rate within one screen of 711 sequences,"chain 1 S3A, chain 1 G11A"
16,0.914 Z-score of the enrichment rate within one screen of 711 sequences,chain 1 N9V
17,1.54 Z-score of the enrichment rate within one screen of 711 sequences,chain 1 N9G
18,-0.389 Z-score of the enrichment rate within one screen of 711 sequences,chain 1 N9E
19,1.54 Z-score of the enrichment rate within one screen of 711 sequences,chain 1 N9F
20,1.56 Z-score of the enrichment rate within one screen of 711 sequences,chain 1 N9A
21,1.77 Z-score of the enrichment rate within one screen of 711 sequences,chain 1 N9L
22,1.38 Z-score of the enrichment rate within one screen of 711 sequences,chain 1 N9C
23,0.0592 Z-score of the enrichment rate within one screen of 711 sequences,chain 1 N9D
24,1.25 Z-score of the enrichment rate within one screen of 711 sequences,chain 1 N9Y
25,0.0482 Z-score of the enrichment rate within one screen of 711 sequences,"chain 1 P15A, chain 1 K16N"
26,1.54 Z-score of the enrichment rate within one screen of 711 sequences,"chain 1 P15A, chain 1 K16A"

row,screen value,Variant
1,0.0844 Z-score of the enrichment rate within one screen of 711 sequences,"chain 1 P10A, chain 1 G11A"
2,-0.354 Z-score of the enrichment rate within one screen of 711 sequences,"chain 1 R8A, chain 1 P10A"
3,-1.11 Z-score of the enrichment rate within one screen of 711 sequences,"chain 1 S3A, chain 1 L12A"
4,-0.954 Z-score of the enrichment rate within one screen of 711 sequences,"chain 1 P10A, chain 1 I14A"
5,0.699 Z-score of the enrichment rate within one screen of 711 sequences,chain 1 P10T
6,-0.469 Z-score of the enrichment rate within one screen of 711 sequences,chain 1 P10D
7,0.742 Z-score of the enrichment rate within one screen of 711 sequences,chain 1 P10V
8,0.241 Z-score of the enrichment rate within one screen of 711 sequences,chain 1 P10G
9,0.865 Z-score of the enrichment rate within one screen of 711 sequences,chain 1 P10F
10,0.911 Z-score of the enrichment rate within one screen of 711 sequences,chain 1 P10W
11,0.621 Z-score of the enrichment rate within one screen of 711 sequences,chain 1 P10A
12,0.893 Z-score of the enrichment rate within one screen of 711 sequences,"chain 1 S3A, chain 1 K16A"
13,2.75 Z-score of the enrichment rate within one screen of 711 sequences,chain 1 P15N
14,1.25 Z-score of the enrichment rate within one screen of 711 sequences,chain 1 P15F
15,4.38 Z-score of the enrichment rate within one screen of 711 sequences,chain 1 P15C
16,1.3 Z-score of the enrichment rate within one screen of 711 sequences,chain 1 P15L
17,2.82 Z-score of the enrichment rate within one screen of 711 sequences,chain 1 P15A
18,0.201 Z-score of the enrichment rate within one screen of 711 sequences,"chain 1 R8A, chain 1 P15A"
19,0.162 Z-score of the enrichment rate within one screen of 711 sequences,"chain 1 N9A, chain 1 K16A"
20,-0.573 Z-score of the enrichment rate within one screen of 711 sequences,"chain 1 N9A, chain 1 I14A"
21,-1.27 Z-score of the enrichment rate within one screen of 711 sequences,"chain 1 L12A, chain 1 I14A"
22,1.3 Z-score of the enrichment rate within one screen of 711 sequences,"chain 1 S3A, chain 1 N9A"
23,0.46 Z-score of the enrichment rate within one screen of 711 sequences,"chain 1 S3A, chain 1 K7A"
24,-0.936 Z-score of the enrichment rate within one screen of 711 sequences,"chain 1 S3A, chain 1 I14A"
25,0.87 Z-score of the enrichment rate within one screen of 711 sequences,"chain 1 P10A, chain 1 P15A"
26,-0.113 Z-score of the enrichment rate within one screen of 711 sequences,"chain 1 R8A, chain 1 N9A"
